Measured values taken from the RNAGym collection of RNA variant scans (doi:10.7554/elife.80360).

B1: Twister Ribozyme (parent)
chain: AACACUGCCAAUGCCGGUCCCAAGCCCGGAUAAAAGUGGAGGGGGCGG

Variants of: B1
Assay: self-cleavage, relative activity (ratio to wild type); higher = more cleavage; co-transcriptional

Variant	self-cleavage
U6G C21U	0.0405
U6G C21A	0.0289
U6A G7C	0.234
U6G	0.486
U6C	0.596
U6A	1.03
C5U G29A	0.739
G7A A23C	0.0662
G7A A23U	0.12
G7A G29C	0.12
G7A G29U	0.339
U6C C26A	0.0404
U6C C26G	0.125
U6A C27G	0.11
U6A C27A	0.119
U6A C27U	0.682
U6C G48A	0.514
U6G C8A	0.212
U6C G7C	0.0439
U6C G7A	0.0638
U6G G38U	0.223
C5G G39U	0.134
C5G G39C	0.106
C5U C21U	0.0809

Variant	self-cleavage
C5U C21A	0.126
U6G A32U	0.405
C5G C15G	0.0337
U6C A33U	0.319
U6C A33C	0.12
C5U G48C	0.883
C5G G28C	0.212
C5G G28U	0.279
C5G G13C	0.0798
C5G G13A	0.115
U6A G24C	0.399
U6A G24U	0.0898
G7A C20U	0.116
C5G G24U	0.112
C5G G24C	0.118
C5G C20G	0.0308
C5G C20U	0.65
U6C A30U	0.493
C5U G28C	0.434
C5U G28U	0.67
C5U C26G	0.0996
C5U C26A	0.148
C5U C26U	0.0759
C5U A23C	0.116

Variant	self-cleavage
C5U A23G	0.23
C5U A23U	0.306
C5U G24A	0.058
C5U G24C	0.0979
U6A G48A	0.76
U6A G48U	0.782
U6C U18G	0.0358
U6C U18C	0.0688
U6A A32G	0.987
U6A A32U	0.862
C5G C21G	0.155
U6G A34G	0.392
U6G A34C	0.539
U6G G39C	0.124
U6G G39U	0.105
C5U G43A	0.141
U6C C20U	0.169
U6C C20A	0.0292
U6C G39A	0.273
U6C G39C	0.136
U6C G39U	0.114
G7A A30G	0.405
U6A G38A	0.738
U6A G38C	0.594

Variant	self-cleavage
U6A G38U	0.188
U6A G45U	0.695
C5U G39A	0.167
C5U G39U	0.175
U6A U37G	0.328
U6A U37C	0.124
G7A C14G	0.0811
G7A C14U	0.43
C5U C27U	0.483
U6A A23C	0.097
U6A A23G	0.14
U6A A23U	0.191
U6C A40G	0.0788
U6C G13C	0.107
U6C G13U	0.0523
U6C G13A	0.0845
C5U C19G	0.107
U6G A10U	0.204
U6A G29U	0.767
U6A G29A	0.787
U6A A10U	1
U6A A10G	1.22
U6C C15A	0.169
U6C C15U	0.354

Variant	self-cleavage
U6A G17C	0.0763
U6A G17A	0.181
U6G G43U	0.184
C5U A30C	0.542
U6G C26G	0.0499
U6A C20G	0.0822
U6A C20A	0.0593
C5U C15G	0.0698
C5U C15A	0.385
C5U C15U	0.762
C5U U12A	0.943
C5U A32G	0.795
U6A U18A	0.174
U6A U18G	0.0743
U6G G29U	0.173
U6G G24A	0.0855
C5U U6A	0.674
C5U U6G	0.261
C5U A34U	0.631
C5U A34G	0.511
C5G G29U	0.584
C5G G29C	0.306
C5G G29A	0.458
G7A A10U	0.505

Variant	self-cleavage
G7A A10C	0.459
G7A A10G	0.982
C5G U12C	0.896
C5G U12A	0.821
U6G G16A	0.226
U6C C25U	0.184
U6C C25G	0.0594
C5U C46U	0.825
C5U C46G	0.776
C5U	0.887
U6G A40G	0.137
C5U C20G	0.102
C5U C8A	0.193
C5U C8G	0.132
U6A C46A	0.809
U6A C46G	0.988
U6A C46U	1.04
U6C C27A	0.0694
U6A G28A	0.616
U6A G28C	0.524
U6A A40U	0.116
C5G G47A	0.547
C5U C25A	0.0792
C5G C46A	0.776

Variant	self-cleavage
C5G C46U	0.77
U6G C20G	0.0753
U6G C20U	0.236
U6G C20A	0.0634
U6A C26G	0.132
U6A C26A	0.144
U6A G42C	0.291
U6A C14G	0.124
U6C C14G	0.0559
U6C G47C	0.209
U6C G47A	0.579
U6C G47U	0.575
U6C C8U	0.174
U6A A30U	0.981
G7A A22G	0.0675
G7A A22U	0.103
G7A A22C	0.519
U6C A35C	0.403
C5G C27G	0.0623
C5U G44C	0.864
U6G A22U	0.136
C5U U18C	0.24
C5U G17U	0.116
